Tests used:
[1] = target: T1, amphyphisin SH3 (AMPH_HUMAN), P49418; experiment: SPOT array
T1 chain: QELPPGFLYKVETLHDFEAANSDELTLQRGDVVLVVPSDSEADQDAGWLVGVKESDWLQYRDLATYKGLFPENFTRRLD

[2] = target: endophilin SH3 (SH3G2_HUMAN), Q99962; experiment: SPOT array

Binder | normalised SPOT signal, Boehringer light units (BLU); mean over the file's lines of this peptide [1] | normalised SPOT signal, Boehringer light units (BLU); mean over the file's lines of this peptide [2]
SRNVLRRPFQAQSG [Q12933 37-50] | 31.6 | 112
SSGVPGRPPGLEEE [P49810 64-78] | 50.9 | 57.8
SSKEFNRPDKLKAH [Q9BYN7 579-592] | 132 | 120
STPRPARPPSPTEQ [Q96ML3 75-89] | 324 | 9450
STQGLRRPFGVAVM [Q92608 327-340] | 8.9 | 27.2
SVGRPTRPSRGPWR [Q9HBQ8 81-94] | 9540 | 5870
SVRGPLRPPVRSPA [Q96H54 9-23] | 5070 | 5540
SWGGPWRPPPPGFW [Q8TC90 86-100] | 43.7 | 1290
DADPLKRPTFKQIV [P10721 908-921] | 39.9 | 19.8
ASLPPPRPQRPVTK [Q9NQE0 197-210] | 9900 | 5900
DANRLRRPGGSYPA [Q14767 49-62] | 24.8 | 59.6
DAQEIIRPRRSKYF [Q9HCG2 115-128] | 723 | 165
DAYSFKRPDRSKMN [P13611 342-355] | 543 | 45.4
DSSKLRRPLKRNRI [Q9NVG6 7-20] | 111 | 167
DDEPPARPPPPPPA [Q9NQC3 135-149] | 37.6 | 54.3
DDILINRPAKKHLE [Q9H9F8 116-129] | 7.5 | 127

Binder | normalised SPOT signal, Boehringer light units (BLU); mean over the file's lines of this peptide [1] | normalised SPOT signal, Boehringer light units (BLU); mean over the file's lines of this peptide [2]
DDLEIVRPARRRTP [Q15598 3286-3299] | 189 | 67.6
DDSVILRPSKSVKL [Q9Y2R2 666-679] | 119 | 167
DEAQLSRPKKSSDR [O60481 257-270] | 51.5 | 76.4
DEARLRRPPRPSSD [Q9Y2H9 828-841] | 2750 | 172
ADAEPGRPKKRAHS [Q9P2P0 592-605] | 120 | 48.3
DEEKPKRPTRRRRK [O94885 688-701] | 23100 | 959
DEGSLRRPGRLTST [Q96ML9 142-155] | 81.1 | 28.2
DELEPRRPRYRVPD [Q14697 104-117] | 35.4 | 26.4
DEPEPPRPRRGSLR [O43157 1891-1904] | 3590 | 126
DESSPRRPDYLKGL [Q99698 2220-2233] | 23.9 | 28
DESRIRRPMNAFMV [P35713 81-94] | 69.5 | 94.4
DEVWFKRPDGSKSK [Q9BRI4 246-259] | 30 | 60.8
DFPKPKKPPPPAKA [Q9Y5K6 333-347] | 33 | 8340
DFYEPRRPEDDDPT [Q96IE0 67-80] | 0 | 50.1
DGDPLKRPLLGIVQ [O75060 326-339] | 18.7 | 41.8
